Target: T1, CD3ε homodimer protein (human, UniProt P07766 23-126, limits assumed)
T1 construct: also called CD3 (CD3ε)
Experiment: SPR
Procedure: Each one-amino acid altered form constructed, expressed, and purified in the paragraph (6-2) was evaluated using Biacore T200 (GE Healthcare Japan Corp.). An appropriate amount of CD3ε homodimer protein was immobilized onto Sensor chip CM4 (GE Healthcare Japan Corp.) by the amine coupling method. Then, the antibody having an appropriate concentration was injected thereto as an analyte and allowed to interact with the CD3ε homodimer protein on the sensor chip. Then, the sensor chip was regenerated by the injection of 10 mmol/L glycine-HCl (pH 1.5). The assay was conducted at 25° C., and HBS-EP+ (GE Healthcare Japan Corp.) was used as a running buffer. […] Each parameter was calculated using Biacore T200 Evaluation Software (GE Healthcare Japan Corp.).
Specifically, when the amount of the GLS3000-containing antibody bound was defined as X and the amount of the L chain one-amino acid altered form bound was defined as Y, a value of Z (ratio of amounts bound)=Y/X was used.

T1 sequence (P07766 23-126 limits assumed): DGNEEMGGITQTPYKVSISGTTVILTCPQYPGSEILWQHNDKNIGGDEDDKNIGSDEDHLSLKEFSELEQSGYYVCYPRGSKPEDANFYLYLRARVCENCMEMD

KD ratio to GLS3000: 0.98
B1: CE115HA000 / GLS3000 one-arm antibody (unaltered) (antibody, human IgG1, kappa, L234A L235A, N297A)
heavy: QVQLVESGGGVVQPGRSLRLSCAASGFTFSNAWMHWVRQAPGKGLEWVAQIKAKSNNYATYYAESVKGRFTISRDDSKNSLYLQMNSLKTEDTAVYYCRYVHYGAYYGVDAWGQGTTVTVSSASTKGPSVFPLAPSSKSTSGGTAALGCLVKDYFPEPVTVSWNSGALTSGVHTFPAVLQSSGLYSLSSVVTVPSSSLGTQTYICNVNHKPSNTKVDKKVEPKSCDKTHTCPPCPAPEAAGGPSVFLFPPKPKDTLMISRTPEVTCVVVDVSHEDPEVKFNWYVDGVEVHNAKTKPREEQYASTYRVVSVLTVLHQDWLNGKEYKCKVSNKALPAPIEKTISKAKGQPREPQVYTLPPSRCELTKNQVSLSCAVKGFYPSDIAVEWESNGQPENNYKTTPPVLDSDGSFFLVSKLTVDKSRWQQGNVFSCSVMHEALHNHYTQKSLSLSPDYKDDDDK
chain: EPKSSDKTHTCPPCPAPELLGGPSVFLFPPKPKDTLMISRTPEVTCVVVDVSHEDPEVKFNWYVDGVEVHNAKTKPREEQYNSTYRVVSVLTVLHQDWLNGKEYKCKVSNKALPAPIEKTISKAKGQPREPQVCTLPPSRDELTKNQVSLWCLVKGFYPSDIAVEWESNGQPENNYKTTPPVLDSDGSFFLYSKLTVDKSRWQQGNVFSCSVMHEALHNRYTQKSLSLSP
light: DIVMTQSPLSLPVTPGEPASISCRSSQSLVHSNRNTYLHWYQQKPGQAPRLLIYKVSNRFSGVPDRFSGSGSGTDFTLKISRVEAEDVGVYYCGQGTQVPYTFGQGTKLEIKRTVAAPSVFIFPPSDEQLKSGTASVVCLLNNFYPREAKVQWKVDNALQSGNSQESVTEQDSKDSTYSLSSTLTLSKADYEKHKVYACEVTHQGLSSPVTKSFNRGEC
notes: All L chain altered forms m3-m332 have this format; for them only VH and VL are written out; also called GLS3000-containing antibody

Reference: patent US20260049138A1 (Chugai, published 2026)
